The target of this assay is T1, TRAIL R1-Fc fusion protein (UniProt O00220 24-239, limits assumed).
T1 construct: The construct is not described beyond its name; not shown: Fc portion
As to the kind of experiment: immunoprecipitation with receptor-Fc from lysates of HA-TRAIL-s transfected 293T cells, Western blot. A general note: Immunoblotting shows a protein as a band on a membrane.

T1 sequence (O00220 24-239 limits assumed): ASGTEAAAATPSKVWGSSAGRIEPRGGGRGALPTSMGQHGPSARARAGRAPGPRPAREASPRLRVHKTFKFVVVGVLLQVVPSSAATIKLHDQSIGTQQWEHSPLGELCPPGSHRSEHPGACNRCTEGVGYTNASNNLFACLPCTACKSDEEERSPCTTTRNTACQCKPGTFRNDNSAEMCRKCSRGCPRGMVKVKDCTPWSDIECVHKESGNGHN

B1: HA-tagged TRAIL-s (ligand)
chain: MAMMEVQGGPSLGQTCVLIVIFTVLLQSLCVAVTYVYFTNELKQMQDKYSKSGIACFLKEDDSYWDPNDEESMNSPCWQVKWQLRQLVRKTPRMKRLWAAK
notes: also called HA-TRAIL-s; not shown: HA tag of the HA-pcDNA3 vector
Turning to B1, the binding result is reported as “no binding”.

Values taken from patent publication US20100172914A1 (MAYO FOUNDATION FOR MEDICAL EDUCATION AND RESEARCH, published 2010).
